This is an account of results in paper PMC2894018 (2010).

For assay [1], the target named is HIV-1 Gag fused to the N- or C-terminal fragment of Venus (HIV-1). Kind of assay: split reporter (BiFC, NanoBiT); Venus BiFC in HeLa cells cotransfected with VN and VC fusion plasmids; thirty-six to forty hours after transfection, fixed; percent BiFC positive cells by flow cytometry and fluorescence microscopy.
For assay [2] the target is unchanged. In words: split reporter (BiFC, NanoBiT); Venus BiFC in 293T cells cotransfected with VC and VN chimeric Vpr and Gag plasmids; fixed thirty-six hours after transfection; percent BiFC positive cells by flow cytometry. In general terms: Flow cytometry measures light scatter and fluorescence of single cells or particles in a stream.
In assay [3] the target is HIV-1 Vpr Δ44 fused to the N- or C-terminal fragment of Venus (UniProt P12520). Kind of assay: BiFC (bimolecular fluorescence complementation), flow cytometry on cells. The settings on record: cells cotransfected with VC and VN fusions of the same Vpr mutant; vector control 0.1; parent: 35.7.
The target in assay [4] is T1, HIV-1 Vpr from NL43 (Vpr^wt) fused to the N- or C-terminal fragment of Venus (HIV-1 (NL43)), P12520.
T1 chain: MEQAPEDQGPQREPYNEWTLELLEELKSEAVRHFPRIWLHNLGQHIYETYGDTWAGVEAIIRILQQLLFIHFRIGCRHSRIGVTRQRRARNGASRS
Kind of assay: split reporter (BiFC, NanoBiT); Venus BiFC in HeLa cells cotransfected with VN and VC fusion plasmids; thirty-six to forty hours after transfection, fixed; percent BiFC positive cells by flow cytometry and fluorescence microscopy. The note with it: remark: other sources report otherwise.

For assay [5], the target named is T1, HIV-1 Vpr from NL43 (Vpr^wt) fused to …. Described as above. The settings on record: remark: other sources report otherwise.
Assay [6] shares this target. In words: split reporter (BiFC, NanoBiT); Venus BiFC competition: VC-Vpr and VN-Vpr plasmids cotransfected with increasing amounts of untagged Vpr plasmid or empty vector; flow cytometry thirty-six hours after transfection; BiFC positive cells with vector backbone set as 100%. The note with it: remark: other sources report otherwise.

On to “HIV-1 Gag fused to the N- or C-terminal fragment of Venus (natural protein)”, for which the percent BiFC positive cells in assay [1] amounted to 30%.

Consider “HIV-1 Vpr E48A fused to the N- or C-terminal fragment of Venus (from UniProt P12520 1-96) (natural protein)”, for which, in assay [2], the percent BiFC positive cells (with VC-Gag) was 28% and the percent BiFC positive cells (with VN-Gag) worked out at 29%.

In assay [2], “HIV-1 Vpr R80A fused to the N- or C-terminal fragment of Venus (from UniProt P12520 1-96) (natural protein)” registered a percent BiFC positive cells (with VC-Gag) of 27% and a percent BiFC positive cells (with VN-Gag) of 33%.

As to “HIV-1 Vpr from NL43 (Vpr^wt) fused to the N- or C-terminal fragment of Venus (from UniProt P12520 1-96) (natural protein)”, in assay [2], the percent BiFC positive cells (with VC-Gag) worked out at 27% and the percent BiFC positive cells (with VN-Gag) was found to be 31%. Also, in assay [1], the percent fluorescent positive cells (venus-C-Gag and venus-N-Vpr^wt) came to 29%; the percent fluorescent positive cells (venus-N-Gag and venus-C-Vpr^wt) amounted to 34%.

Take “HIV-1 Vpr from NL43 (Vpr^wt) fused to the N- or C-terminal fragment of Venus (from UniProt P12520) 44del”: the response (% BiFC positive cells) in assay [3] stood at 1.

B1: HIV-1 Vpr from NL43 (Vpr^wt) fused to the N- or C-terminal fragment of Venus, P12520 1-96 (natural protein)
chain: MEQAPEDQGPQREPYNEWTLELLEELKSEAVRHFPRIWLHNLGQHIYETYGDTWAGVEAIIRILQQLLFIHFRIGCRHSRIGVTRQRRARNGASRS
Consider B1, for which the percent BiFC positive cells in assay [4] was found to be 26%; in assay [5], 35%.

B2: untagged HIV-1 Vpr (expressed from pVpr), P12520 1-96 (natural protein)
chain: MEQAPEDQGPQREPYNEWTLELLEELKSEAVRHFPRIWLHNLGQHIYETYGDTWAGVEAIIRILQQLLFIHFRIGCRHSRIGVTRQRRARNGASRS
Consider B2, for which, in assay [6], the percent BiFC positive cells left (VC-Vpr with VN-Vpr, vector backbone as 100%) at a ratio of 1:10 was under 20% and the percent reduction of BiFC positive cells (VC-Vpr with VN-Vpr) at a ratio of 1:2.5 is 40%.
